The results in this text go back to paper PMC8274477 (Frontiers in Cell and Developmental Biology, 2021).

The target of this assay is T1, OTULIN (OTU deubiquitinase with linear linkage specificity, FAM105B), His-tagged, biotin-labelled (human, UniProt Q96BN8 1-352, biotin (label; sites not stated)).
T1 construct: OTULIN (FAM105B), cDNA in pET28a; also called HIS-OTULIN; source: E. coli BL21 (DE3), purified (His-tag Purification Resin), labelled with biotin; not shown: His6, N-terminal, kept
The experiment in a line: peptide or protein array; HuProt human proteome microarray; 5 ug/5 ml biotin-labelled LUBAC or OTULIN in solution, 1 h at room temperature; Cy5-streptavidin, scanned at 635 nm; BSA as negative control; hits: Z-score >= 3 and I_(Mean_Ratio) >= 1.4. To be noted: both partners purified.

B1: C21orf59 (natural protein, human, UniProt P57076 1-290, looked up)
chain: MVLLHVKRGDESQFLLQAPGSTELEELTVQVARVYNGRLKVQRLCSEMEELAEHGIFLPPNMQGLTDDQIEELKLKDEWGEKCVPSGGAVFKKDDIGRRNGQAPNEKMKQVLKKTIEEAKAIISKKQVEAGVCVTMEMVKDALDQLRGAVMIVYPMGLPPYDPIRMEFENKEDLSGTQAGLNVIKEAEAQLWWAAKELRRTKKLSDYVGKNEKTKIIAKIQQRGQGAPAREPIISSEEQKQLMLYYHRRQEELKRLEENDDDAYLNSPWADNTALKRHFHGVKDIKWRPR
notes: C21orf59; protein on the human proteome microarray; source: spotted on the HuProt human proteome microarray
For the molecule B1, the binding result is recorded as “binds”.

B2: C1orf74 (natural protein, human, UniProt Q96LT6 1-269, looked up)
chain: MLLLDLMSSPSPQLLVAAAQQTLGMGKRRSPPQAICLHLAGEVLAVARGLKPAVLYDCNCAGASELQSYLEELKGLGFLTFGLHILEIGENSLIVSPEHVCQHLEQVLLGTIAFVDVSSCQRHPSVCSLDQLQDLKALVAEIITHLQGLQRDLSLAVSYSRLHSSDWNLCTVFGILLGYPVPYTFHLNQGDDNCLALTPLRVFTARISWLLGQPPILLYSFSVPESLFPGLRDILNTWEKDLRTRFRTQNDFADLSISSEIVTLPAVAL
notes: C1orf74; protein on the human proteome microarray; source: spotted on the HuProt human proteome microarray
As for B2, the binding result is “binds”.

B3: BPHL (natural protein, human, UniProt Q86WA6 38-291, looked up)
chain: SVTSAKVAVNGVQLHYQQTGEGDHAVLLLPGMLGSGETDFGPQLKNLNKKLFTVVAWDPRGYGHSRPPDRDFPADFFERDAKDAVDLMKALKFKKVSLLGWSDGGITALIAAAKYPSYIHKMVIWGANAYVTDEDSMIYEGIRDVSKWSERTRKPLEALYGYDYFARTCEKWVDGIRQFKHLPDGNICRHLLPRVQCPALIVHGEKDPLVPRFHADFIHKHVKGSRLHLMPEGKHNLHLRFADEFNKLAEDFLQ
notes: BPHL; protein on the human proteome microarray; source: spotted on the HuProt human proteome microarray
As for B3, the binding result was “binds”.

B4: C17orf82 (natural protein, human, UniProt Q86X59 1-251, looked up)
chain: MGRPLEGQPLRALDLYPEPAFLRSGKDPKSSPASSPSFAVLGPEVRSTGGQAGSRRRPSAPCSQDRAAAEGAPALLGGSPSSGSPGHPPGSAFGVEAGCRALNVSEHARGGFALGLPFGLSGGAYLFLLLDGAGDPKPTPEAPISSADGRAWFPSESSWQLPQLPAGSTSGSEPRARPGLGPRQLLTGPRDGAAGQGPGRGLTARLGREREIDCGPRQAGHGGTATDTGRAGSGARHRPPRDRGTPGLRTH
notes: C17orf82; protein on the human proteome microarray; source: spotted on the HuProt human proteome microarray
Consider B4, for which the binding result is “binds”.

B5: ALKBH3 (natural protein, human, UniProt Q96Q83 1-286, looked up)
chain: MEEKRRRARVQGAWAAPVKSQAIAQPATTAKSHLHQKPGQTWKNKEHHLSDREFVFKEPQQVVRRAPEPRVIDREGVYEISLSPTGVSRVCLYPGFVDVKEADWILEQLCQDVPWKQRTGIREDITYQQPRLTAWYGELPYTYSRITMEPNPHWHPVLRTLKNRIEENTGHTFNSLLCNLYRNEKDSVDWHSDDEPSLGRCPIIASLSFGATRTFEMRKKPPPEENGDYTYVERVKIPLDHGTLLIMEGATQADWQHRVPKEYHSREPRVNLTFRTVYPDPRGAPW
notes: ALKBH3; protein on the human proteome microarray; source: spotted on the HuProt human proteome microarray
With B5, the binding result is “binds”.

B6: C11orf1 (natural protein, human, UniProt Q9H5F2 1-150, looked up)
chain: MAASQCLCCSKFLFQRQNLACFLTNPHCGSLVNADGHGEVWTDWNNMSKFFQYGWRCTTNENTYSNRTLMGNWNQERYDLRNIVQPKPLPSQFGHYFETTYDTSYNNKMPLSTHRFKREPHWFPGHQPELDPPRYKCTEKSTYMNSYSKP
notes: C11orf1; protein on the human proteome microarray; source: spotted on the HuProt human proteome microarray
Take B6: the binding result is recorded as “binds”.

B7: ANXA3 (natural protein, human, UniProt P12429 1-323, looked up)
chain: MASIWVGHRGTVRDYPDFSPSVDAEAIQKAIRGIGTDEKMLISILTERSNAQRQLIVKEYQAAYGKELKDDLKGDLSGHFEHLMVALVTPPAVFDAKQLKKSMKGAGTNEDALIEILTTRTSRQMKDISQAYYTVYKKSLGDDISSETSGDFRKALLTLADGRRDESLKVDEHLAKQDAQILYKAGENRWGTDEDKFTEILCLRSFPQLKLTFDEYRNISQKDIVDSIKGELSGHFEDLLLAIVNCVRNTPAFLAERLHRALKGIGTDEFTLNRIMVSRSEIDLLDIRTEFKKHYGYSLYSAIKSDTSGDYEITLLKICGGDD
notes: ANXA3; protein on the human proteome microarray; source: spotted on the HuProt human proteome microarray
In the case of B7, the binding result is “binds”.

B8: BLVRB (natural protein, human, UniProt P30043 1-206, looked up)
chain: MAVKKIAIFGATGQTGLTTLAQAVQAGYEVTVLVRDSSRLPSEGPRPAHVVVGDVLQAADVDKTVAGQDAVIVLLGTRNDLSPTTVMSEGARNIVAAMKAHGVDKVVACTSAFLLWDPTKVPPRLQAVTDDHIRMHKVLRESGLKYVAVMPPHIGDQPLTGAYTVTLDGRGPSRVISKHDLGHFMLRCLTTDEYDGHSTYPSHQYQ
notes: BLVRB; protein on the human proteome microarray; source: spotted on the HuProt human proteome microarray
Turning to B8, the binding result is listed as “binds”.
